# Measurements taken from paper PMC10808355.
# What was measured:
# [1] = biological target: Chaetomium thermophilum 80S ribosome (Ct80S) (C. thermophilum (endogenous in C. thermophilum)); assay: cryo-EM structure; 400 nM C. thermophilum 80S ribosomes (with random nascent chains) mixed with full-length CtMAP2 (66 µM final), 30 min at RT, then vitrified
# [2] = biological target: Chaetomium thermophilum 80S ribosome (Ct80S) (C. thermophilum (endogenous in C. thermophilum)); assay: cryo-EM structure; 400 nM C. thermophilum 80S ribosomes mixed with CtMAP2∆N (66 µM final), 30 min at RT, then vitrified; particles separated by translocation state (rotated, non-rotated)
# [3] = biological target: Human 80S ribosome, non-translating (Hs80S) (human (endogenous in HeLa)) (UniProt P62750); assay: cryo-EM structure; 200 nM non-translating H. sapiens 80S ribosomes mixed with HsMAP2 (59 µM final), 30 min at RT, then vitrified
substance,measurement,setting,value
"Chaetomium thermophilum methionine aminopeptidase 2, full length (CtMAP2) (enzyme)",percent of purified ribosomes that accommodate MAP2,[1],100%
"CtMAP2(∆N1-73), autoproteolysis product of C. thermophilum MAP2 without the N-terminal extension (domain or fragment)","fold of the percentage in the A-site, against the full-length CtMAP2 dataset",[2],4 fold
same,percent of 80S ribosomes with CtMAP2∆N at the PTE,[2],70%
Human methionine aminopeptidase 2 (HsMAP2) (from UniProt P50579 1-478) (enzyme),percent of purified ribosomes that accommodate MAP2,[3],100%
